Measured values reported in patent US20030119027.

Target: T1, SfiI (Streptomyces fimbriatus) (UniProt O52512)
T1 sequence: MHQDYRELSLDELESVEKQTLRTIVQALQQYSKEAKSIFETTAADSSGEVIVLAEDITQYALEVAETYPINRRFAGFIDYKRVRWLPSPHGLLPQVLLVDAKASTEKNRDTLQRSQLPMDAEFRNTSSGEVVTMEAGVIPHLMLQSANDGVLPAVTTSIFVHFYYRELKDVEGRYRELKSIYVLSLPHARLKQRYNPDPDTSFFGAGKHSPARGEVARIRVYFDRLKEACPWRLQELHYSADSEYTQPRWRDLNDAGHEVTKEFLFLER
Experiment: cleavage_in_vitro
Conditions: yield of in vitro translation with T7 RNA polymerase; NEBuffer 2, 10 mM MgCl2, 50 C 60 min

## GGCCNNNNNGGCC (double strand) [SfiI site (Adenovirus-2 DNA)]
  activity: > 33000 units/ml
